What was measured:
[1] = target: human VEGFA (human) (UniProt P15692); assay: blocking ELISA: VEGFR2 coated, biotinylated VEGFA with antibody dilutions (FIG. 6)
[2] = target: human VEGFA (human) (UniProt P15692); assay: cell-based or functional assay

Sequence of human VEGFA (human) (P15692 other isoform, or with tags, fused parts or gaps limits assumed): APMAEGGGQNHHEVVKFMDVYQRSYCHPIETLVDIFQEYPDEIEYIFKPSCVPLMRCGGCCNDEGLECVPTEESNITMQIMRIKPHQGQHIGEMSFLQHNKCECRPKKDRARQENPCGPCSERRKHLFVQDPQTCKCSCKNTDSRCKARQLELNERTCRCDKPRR
Sequence of Eylea (Aflibercept) (Fc fusion) (chain): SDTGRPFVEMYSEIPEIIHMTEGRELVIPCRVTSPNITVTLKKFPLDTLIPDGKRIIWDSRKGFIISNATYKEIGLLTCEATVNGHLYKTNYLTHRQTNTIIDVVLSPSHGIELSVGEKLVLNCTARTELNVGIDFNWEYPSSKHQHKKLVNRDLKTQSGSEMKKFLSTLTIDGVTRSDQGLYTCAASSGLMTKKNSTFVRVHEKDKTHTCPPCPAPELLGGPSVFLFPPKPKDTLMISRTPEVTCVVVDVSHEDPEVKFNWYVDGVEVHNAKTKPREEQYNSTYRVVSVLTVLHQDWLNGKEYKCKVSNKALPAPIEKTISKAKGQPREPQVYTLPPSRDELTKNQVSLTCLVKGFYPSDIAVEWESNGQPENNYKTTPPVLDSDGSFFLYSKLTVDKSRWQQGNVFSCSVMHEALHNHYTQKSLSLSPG
Sequence of Conbercept (Fc fusion) (chain): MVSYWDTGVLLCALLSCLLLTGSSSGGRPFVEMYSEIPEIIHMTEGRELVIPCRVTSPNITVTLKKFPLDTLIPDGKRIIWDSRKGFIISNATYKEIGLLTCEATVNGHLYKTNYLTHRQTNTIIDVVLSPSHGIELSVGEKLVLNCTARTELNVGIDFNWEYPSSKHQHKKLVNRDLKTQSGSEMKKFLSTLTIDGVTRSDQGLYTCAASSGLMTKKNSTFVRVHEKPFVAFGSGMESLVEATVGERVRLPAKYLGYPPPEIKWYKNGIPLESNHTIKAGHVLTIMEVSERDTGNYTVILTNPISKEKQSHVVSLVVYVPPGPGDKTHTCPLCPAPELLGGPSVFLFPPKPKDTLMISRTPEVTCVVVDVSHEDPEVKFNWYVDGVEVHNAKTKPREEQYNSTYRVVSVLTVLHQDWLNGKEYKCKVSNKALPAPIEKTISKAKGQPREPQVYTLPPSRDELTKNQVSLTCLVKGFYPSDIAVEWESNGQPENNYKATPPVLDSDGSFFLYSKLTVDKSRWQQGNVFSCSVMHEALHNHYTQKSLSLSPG

| IC50 [1] | inhibitory effect on HUVEC cell proliferation, IC50 [2] | Substance |
| --- | --- | --- |
| 0.088 µg/mL | 0.13 µg/mL | Conbercept (Fc fusion) |
| 0.085 µg/mL | 0.066 µg/mL | Eylea (Aflibercept) (Fc fusion) |
